Results on 6 molecules are retold here after patent US20260217825A1 (CHIMAGEN BIOSCIENCES, published 2026).

Experiment [1] concerns the target T1, recombinant GPRC5D antigen (Human GPRC5D protein-Flag-His tag (51.8KD) ACRO Cat: GPD-H52D3) (human, UniProt Q9NZD1 1-345, limits assumed).
T1 construct: Bought protein; also called CPRG5D; not shown: Flag-His tag
Briefly: BLI (Octet R8), recombinant GPRC5D antigen. From the text:
The recombinant GPRC5D antigen (Human GPRC5D protein-Flag-His tag (51.8KD) ACRO Cat: GPD-H52D3) was immobilized on a chip and detected by Octet® R8 biomolecular interaction analysis system.
(In general: In BLI a coated tip is dipped into the sample, and binding shifts an interference pattern.)

Experiment [2] deals with T2, human GPRC5D on cells (human, UniProt Q9NZD1 1-345).
T2 construct: whole, on cells; Either overexpressed in HEK293, CHOS or HEK293T cells, or naturally expressed on human myeloma cell lines; also called hGPRC5D; HEK293-hGPRC5D
T2 sequence (Q9NZD1 whole entry): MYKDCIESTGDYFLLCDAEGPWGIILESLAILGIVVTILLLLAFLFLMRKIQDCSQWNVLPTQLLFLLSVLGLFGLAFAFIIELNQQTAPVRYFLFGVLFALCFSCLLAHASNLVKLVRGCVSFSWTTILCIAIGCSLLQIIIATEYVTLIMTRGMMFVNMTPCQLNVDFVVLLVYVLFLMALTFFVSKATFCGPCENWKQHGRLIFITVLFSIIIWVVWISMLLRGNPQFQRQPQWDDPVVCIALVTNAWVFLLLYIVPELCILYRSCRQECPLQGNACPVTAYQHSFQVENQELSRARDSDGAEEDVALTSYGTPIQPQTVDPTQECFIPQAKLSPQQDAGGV
Briefly: cell-based binding assay on HEK293T-hGPRC5D. The procedure:
(§1) HEK293T-hGPRC5D or HEK293T-cynoGPRC5D cells in logarithmic growth phase were inoculated into a 96-well culture plate, and the antibodies at different concentrations (200, 66.7, 22.22, 7.41, 2.47, 0.82, 0.27, 0.09, 0.03, and 0.01 nM) was added. 2 duplicate wells were set for each concentration and a negative control (PBS) well was also set. The cells were incubated at 25° C. for about 60 minutes and then developed and detected. The raw data of the test was the difference between the detection wavelength and the reference wavelength. A dose-response curve was fitted using statistical software, based on OD value and the logarithmic value of the concentration, from which the EC50 was obtained.

Experiment [3] addresses T1, recombinant GPRC5D antigen (Human …). Briefly: BLI (Octet R8), recombinant GPRC5D antigen. From the text:
(§2) The recombinant CD3e antigen (Human CD3 epsilon Protein, His Tag, ACRO Cat: CDE-H5223) and recombinant GPRC5D antigen (Human GPRC5D protein-Flag-His tag (51.8KD) ACRO Cat: GPD-H52D3) were immobilized on a chip and detected by Octet® R8 biomolecular interaction analysis system.
This is another data set of the same source.

The target of experiment [4] is T3, cynomolgus monkey GPRC5D on HEK293T cells (cynomolgus monkey).
T3 construct: whole, on cells; also called HEK293T-cynoGPRC5D; Cynomolgus GPRC5D
As to the kind of experiment: cell-based binding assay on HEK293T-cynoGPRC5D. The procedure: as §1

Experiment [5] concerns the target T4, recombinant CD3e antigen (Human CD3 epsilon Protein, His Tag, ACRO Cat: CDE-H5223) (human, UniProt P07766 23-126).
T4 construct: Bought protein; also called CD3 antigen; not shown: His tag
Briefly: BLI (Octet R8), recombinant CD3e antigen.
Text: as §2

Experiment [6] concerns the target T2, human GPRC5D on cells. As to the kind of experiment: flow cytometry, MM.1R cell binding. The procedure:
(§3) After the cells were digested with TrypLE, the digested cells were centrifuged and resuspended in a DPBS solution containing 2% BSA (FACS buffer, 4° C.), added into a 96-well plate with a U-shaped bottom in an amount of 5× 10⁵ cells/100 μl/well, added with antibody diluted over concentration gradient, and incubated at 4° C. for 1 hr. After centrifugation, the supernatant was discarded. 100 μl of anti-human IgG Fc-APC secondary antibody was added to each well and incubated at 4° C. for 1 hr. Then the cells were washed once with a FACS buffer, and resuspended in 200 μl FACS buffer. The fluorescence signal was read on BD CantoII.

For experiment [7], the target named is T2, human GPRC5D on cells. As to the kind of experiment: flow cytometry, NCI-H929 cell binding. The procedure: as §3
A general note: In flow cytometry, cells or beads pass a laser one at a time.

The target of experiment [8] is T2, human GPRC5D on cells. Briefly: FACS on RPMI-8226 cells (natural GPRC5D), anti-human IgG Fc-APC secondary; fit table under the curves. As for the experimental part: as §3
Experiment [9] concerns the target T2, human GPRC5D on cells. Briefly: FACS on CHOS cells expressing hGPRC5D (sheet title: CHOS-hGPRC5D sorted), anti-human IgG Fc-APC secondary; fit table under the curves, unit from the axis Log Conc.(ug/ml). The procedure:
(§4) After centrifugation, […] and CHOS-hGPRC5D cells expressing hGPRC5D were resuspended in a DPBS solution (FACS buffer, 4° C.) containing 2% BSA, added to a 96-well plate with a U-shaped bottom in an amount of 5×10⁵ cells/100 μl/well, added with antibody diluted over concentration gradient, and incubated at 4° C. for 1 hr. After centrifugation, the supernatant was discarded. 100 μl of anti-human IgG Fc-APC secondary antibody was added to each well and incubated at 4° C. for 1 hr. Then the cells were washed once with a FACS buffer, and resuspended in 200 μl FACS buffer. The fluorescence signal was read on BD CantoII.

For experiment [10], the target named is T2, human GPRC5D on cells. Briefly: FACS on NCI-H929 cells (natural GPRC5D), anti-human IgG Fc-APC secondary; fit table under the curves. The procedure: as §3
In experiment [11] the target is T2, human GPRC5D on cells. Briefly: FACS on MM.1R cells (natural GPRC5D), anti-human IgG Fc-APC secondary; fit table under the curves. The procedure: as §3
The target in experiment [12] is T2, human GPRC5D on cells. As to the kind of experiment: FACS on CHOS cells expressing hGPRC5D (sheet title: CHOS-hGPRC5D sorted), anti-human IgG Fc-APC secondary; fit table under the curves. The procedure: as §4
The target of experiment [13] is T2, human GPRC5D on cells. Briefly: FACS on HEK293 cells expressing hGPRC5D (sheet title: 293T-hGPRC5D sorted), anti-human IgG Fc-APC secondary; fit table under the curves. The procedure:
as §4

Experiment [14] deals with T2, human GPRC5D on cells. Briefly: FACS on HEK293 cells expressing hGPRC5D (sheet title: 293T-hGPRC5D sorted), anti-human IgG Fc-APC secondary; fit table under the curves, unit from the axis Log Conc.(ug/ml). The procedure: as §4
For experiment [15], the target named is T2, human GPRC5D on cells. As to the kind of experiment: flow cytometry, RPMI-8226 cell binding. The procedure: as §3

Where a chain is given by its changes, count along the chain named. Names and notes keep the numbering of the source. Read-outs that look alike come from different tables or passages of the source.

T4 sequence (P07766 23-126 limits assumed): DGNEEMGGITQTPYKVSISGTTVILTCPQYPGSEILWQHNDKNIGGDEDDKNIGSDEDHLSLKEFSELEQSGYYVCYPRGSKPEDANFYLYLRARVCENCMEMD
T1 sequence (Q9NZD1 whole entry): as the sequence (Q9NZD1 whole entry) above

B1: humanized antibody 22Mono5JO4 (antibody, human IgG1, V domains shown)
VH: QVQLVQSGAEVKKPGSSVKVSCRASGYPFTNYWMHWVRQAPGQGLEWIGEINPSNGRTNYNEKFKSRATLTLDKLTSTAYMELSSLTSEDTALYYCARGFAYWGQGTLVTVSS
VL: EIVLTQSPGTLSLSPGERATLSCSASSSVSFMHWYQQKPGQAPRRWIYDTTKLASGIPDRFSGSGSGTDYTLTISRLEPEDFAVYYCQQWNSHPLTFGQGTTVEIK
What is called Kd is the equilibrium constant for the complex coming apart. As a reminder, the koff is the first-order rate constant of dissociation. One may read the kon as the second-order rate constant of association. B1: in experiment [1], the Kd was 0.787 nM, the koff stood at 0.000119 s⁻¹ and the kon turned out to be 151000 M⁻¹ s⁻¹.

B2: humanized antibody 22Mono4DN4 (antibody, human IgG1, V domains shown)
VH: ELVQSGAEVKKPGSSVKVSCKASGYPFTNYWMHWVRQAPGQGLEWIGEINPSNGRTNYNEKFKSRATLTLDKSTSTAYMELSSLRSEDTAVYYCARGFAYWGQGTLVTVSS
VL: B1 VL with G9A, I57V, D59A, R76S, T102K
For the molecule B2, in [1], the dissociation constant (Kd) was found to be 16.9 nM, the dissociation rate constant (koff) came to 0.00114 s⁻¹ and the association rate constant (kon) worked out at 67300 M⁻¹ s⁻¹.

B3: humanized antibody 22Mono3L7F (antibody, human IgG1, V domains shown)
VH: EVTLKESGPVLVKPTETLTLTCTASGYPFTNYWMHWVRQPPGKALEWIGEINPSNGRTNYNEKFKSRATLSLDKSKSQAVLTMTNMDPVDTATYYCARGFAYWGQGTLVTVSS
VL: B1 VL with G9A, D59A, R76S, T102K, V103L
notes: also called 22monoO3L7
Take B3: in experiment [1], the equilibrium dissociation constant (Kd) was 25.6 nM, the off-rate (koff) came out at 0.002 s⁻¹ and the association rate constant (kon) was found to be 78000 M⁻¹ s⁻¹.

B4: humanized antibody 22Mono5UQY (antibody, human IgG1, V domains shown)
VH: QVQLQESGPGLVKPSETLSLTCTASGYPFTNYWMHWVRQPPGKGLEWIGEINPSNGRTNYNEKFKSRATLSLDKSKNQASLNLDSVSAADTAIYYCARGFAYWGKGSTVTVSS
VL: AIQLTQSPSSLSASVGDRVTITCSASSSVSFMHWYQQKPGKAPKRWIYDTTKLASGVPSRFSGSGSGTDYTFTISSLQPEDIATYYCQQWNSHPLTFGPGTKVDIK
notes: also called 22MonoSUQY
As for B4, in [1], the Kd amounted to 5.67 nM, the koff turned out to be 0.000489 s⁻¹ and the association rate constant (kon) was found to be 86200 M⁻¹ s⁻¹.

B5: humanized CD3xGPRC5D bispecific antibody 22A8 (Structure D) (bispecific antibody)
heavy 1: QVQLVQSGAEVKKPGSSVKVSCRASGYPFTNYWMHWVRQAPGQGLEWIGEINPSNGRTNYNEKFKSRATLTLDKLTSTAYMELSSLTSEDTALYYCARGFAYWGQGTLVTVSSASTKGPSVFPLAPSSKSTSGGTAALGCLVKDYFPEPVTVSWNSGALTSGVHTFPAVLQSSGLYSLSSVVTVPSSSLGTQTYICNVNHKPSNTKVDKKVEPKSCDKTHTCPPCPAPPVAGPSVFLFPPKPKDTLMISRTPEVTCVVVDVSQEDPEVKFNWYVDGVEVHNAKTKPREEQFNSTYRVVSVLTVLHQDWLNGKEYKCKVSNKGLPSSIEKTISKAKGQPREPQVYTLPPSRDELTKNQVSLSCAVKGFYPSDIAVEWESNGQPENNYKTTPPVLDSDGSFFLVSKLTVDKSRWQQGNVFSCSVMHEALHNRFTQKSLSLSP
light: EIVLTQSPGTLSLSPGERATLSCSASSSVSFMHWYQQKPGQAPRRWIYDTTKLASGIPDRFSGSGSGTDYTLTISRLEPEDFAVYYCQQWNSHPLTFGQGTTVEIKRTVAAPSVFIFPPSDEQLKSGTASVVCLLNNFYPREAKVQWKVDNALQSGNSQESVTEQDSKDSTYSLSSTLTLSKADYEKHKVYACEVTHQGLSSPVTKSFNRGEC
heavy 2: EVQLVESGGGLVQPGGSLRLSCAASGFTFSTYAMNWVRQAPGKGLEWVGRIRSKYNNYATYYADSVKGRFTISRDDSKNSLYLQMNSLRAEDTAVYYCVRHGNFGTSYVSWFAYWGQGTLVTVSSASTKGPSVFPLAPSSKSTSGGTAKLGCLVKDYFPEPVTVSWNSGALTSGVHTFPACLQSSGLYSLSSVVTVPSSSLGTQTYICNVNHKPSNTKVDKKVEPKSSDKTHTCPPCPAPELLAGPDVFLFPPKPKDTLMISRTPEVTCVVVDVSHEDPEVKFNWYVDGVEVHNAKTKPREEQYNSTYRVVSVLTVLHQDWLNGKEYKCKVSNKALPLPEEKTISKAKGQPREPQVYTLPPSRDELTKNQVSLWCLVKGFYPSDIAVEWESNGQPENNYKTTPPVLDSDGSFFLYSKLTVDKSRWQQGNVFSCSVMHEALHNHYTQKSLSLSP
chain: QVQLVQSGAEVKKPGSSVKVSCRASGYPFTNYWMHWVRQAPGQGLEWIGEINPSNGRTNYNEKFKSRATLTLDKLTSTAYMELSSLTSEDTALYYCARGFAYWGQGTLVTVSSASTKGPSVFPLAPSSKSTSGGTAALGCLVKDYFPEPVTVSWNSGALTSGVHTFPAVLQSSGLYSLSSVVTVPSSSLGTQTYICNVNHKPSNTKVDKKVEPKSCDGGGGSGGGGSQAVVTQEPSLTVSPGGTVTLTCRSSTGAVTTSNYANWVQQKPGQAPRGLIGGTNKRAPWTPARFSGSLLGGKAALTLSGAQAEDEADYYCALWYSNLWVFGGGTKLTVLRTVAAPSVDIFPPSDEQLKSGTASVVCLLNNFYPREAKVQWKVDNALQSGNSCESVTEQDSKDSTYSLSSTLTLSKADYEKHKVYACEVTHQGLSSPVTKSFNRGES
notes: First polypeptide: VH1(GPRC5D, humanized)-CH1a-Fc; Second and fifth polypeptides are identical: VL(GPRC5D, humanized)-CLa; Third polypeptide: VH2(CD3)-CH1b-Fc; Fourth polypeptide: VH3(GPRC5D, humanized)-CH1a-linker-VL2(CD3)-CLb; Fc mutations are knob-into-hole (T366W; Y407V, T366S, L368A)
In general, EC50 refers to the concentration that produces a half-maximal response. In the case of B5, the 50% effective concentration (EC50) with human GPRC5D on cells [2] stood at 3.86 nM; in [4], 10.1 nM. Also, the Kd in [3] turned out to be 9.47 nM; in [5], 30 nM. Further, the koff in [3] turned out to be 0.000596 s⁻¹; in [5], 0.00381 s⁻¹. For the same molecule, the kon came out at 62900 M⁻¹ s⁻¹ in experiment [3] and 127000 M⁻¹ s⁻¹ in experiment [5].

B6: ch-72C7 chimeric recombinant antibody (antibody, V domains shown)
VH: QVQLQQPGAELVKPGTSVKLSCKASGYPFTNYWMHWVRQRPGQGLEWIGEINPSNGRTNYNEKFKSLATLTLDKSSSTAYMHLNSLTSEDSAVYYCARGFAYWGQGTLVTVSA
VL: QIVLSQFPAIMSASPGEKVTMTCSASSSVSFMHWYQQKSGTSPKRWIYDTTKLASGVPARFTGSGSGTSYSLTISSMEAEDAATYYCQQWNSHPLTFGPGTKLELK
notes: also called ch-72C7 antibody; antibody ch-72C7
As to B6, the EC50 with human GPRC5D on cells [6] was found to be 0.62 µg/mL; in the experiment with human GPRC5D on cells [7], 0.485 µg/mL; with human GPRC5D on cells [9] it was 1.58 µg/mL; with human GPRC5D on cells [14] it was 0.49 µg/mL; in the experiment with human GPRC5D on cells [15] it was 0.916 µg/mL. The LogEC50 with human GPRC5D on cells [8] was -0.0379 log(ug/ml); with human GPRC5D on cells [10], -0.314 log(ug/ml); in the experiment with human GPRC5D on cells [11], -0.207 log(ug/ml); with human GPRC5D on cells [12], 0.198 log(ug/ml); in the experiment with human GPRC5D on cells [13], -0.309 log(ug/ml).
